# From paper PMC6659671
# Assays:
# HisBamA S425C (E. coli) = HisBamA S425C (E. coli) (UniProt P0A940); assay: cross-linking
# HisBamA G781C (E. coli) [1] = biological target: HisBamA G781C (E. coli) (UniProt P0A940); assay: cross-linking
# HisBamA G781C (E. coli) [2] = biological target: HisBamA G781C (E. coli) (UniProt P0A940); assay: cross-linking; kinetics of intermolecular disulfide-bond formation in intact cells; 0.2 mM 4-DPS on ice for 0, 2, 5, 15, 30, 60 and 90 min; quantitated from αStrepII immunoblots
Substance,percent disulfide-bond formation (HisBamA S425C (E. coli)),percent disulfide-bond formation (HisBamA G781C (E. coli) [1]),"K (rate constant of disulfide-bond formation, single-step fit) (HisBamA G781C (E. coli) [2])",half-time of disulfide-bond formation (HisBamA G781C (E. coli) [2])
MBP−76EspP Y1298C (from UniProt Q7BSW5),28%,–,–,–
MBP−76EspP A1043C (from UniProt Q7BSW5),–,42%,0.038 min⁻¹,18.2 min
